According to paper PMC10786891, “Massively parallel profiling of RNA-targeting CRISPR-Cas13d”:
Numbering of substitutions follows the chain as printed. Names and notes keep the numbering of the source.

Molecular target: T1, EsCas13d, nuclease-dead (Eubacterium siraeum, UniProt B0MS50, R295A;H300A;R849A;H854A)
T1 sequence: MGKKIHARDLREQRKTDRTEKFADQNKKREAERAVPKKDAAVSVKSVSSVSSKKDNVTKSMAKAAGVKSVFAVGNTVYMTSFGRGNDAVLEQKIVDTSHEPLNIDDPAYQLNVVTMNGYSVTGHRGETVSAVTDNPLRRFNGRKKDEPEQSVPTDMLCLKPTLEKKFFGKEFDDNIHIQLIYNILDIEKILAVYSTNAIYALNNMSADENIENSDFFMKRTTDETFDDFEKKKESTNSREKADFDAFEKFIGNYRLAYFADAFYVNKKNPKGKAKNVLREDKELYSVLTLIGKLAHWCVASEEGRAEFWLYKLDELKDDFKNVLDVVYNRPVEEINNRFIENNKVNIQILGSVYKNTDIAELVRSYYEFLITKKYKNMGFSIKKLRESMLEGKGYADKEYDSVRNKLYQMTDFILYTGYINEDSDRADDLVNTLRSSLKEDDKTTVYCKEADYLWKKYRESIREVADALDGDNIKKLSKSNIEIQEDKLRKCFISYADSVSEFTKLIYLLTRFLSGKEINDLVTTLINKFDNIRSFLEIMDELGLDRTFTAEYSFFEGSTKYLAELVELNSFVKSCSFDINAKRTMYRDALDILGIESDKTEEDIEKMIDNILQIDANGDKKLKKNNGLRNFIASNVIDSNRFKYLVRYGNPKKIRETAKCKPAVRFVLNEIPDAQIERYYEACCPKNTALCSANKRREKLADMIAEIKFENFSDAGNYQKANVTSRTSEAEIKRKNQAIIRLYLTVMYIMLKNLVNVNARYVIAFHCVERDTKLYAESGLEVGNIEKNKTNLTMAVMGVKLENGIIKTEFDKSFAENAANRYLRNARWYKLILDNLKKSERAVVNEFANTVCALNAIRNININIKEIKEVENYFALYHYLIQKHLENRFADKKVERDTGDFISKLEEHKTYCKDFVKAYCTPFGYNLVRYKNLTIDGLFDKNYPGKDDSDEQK
Test: crRNA (strand 1, pre-loaded); Mg2+; 40 mM Tris-HCl pH 7.5, 150 mM NaCl, 6 mM MgCl2, 1 mM DTT, 0.1% Tween-20, 0.2 mg/ml BSA; 25 C; 10 min per concentration, then washed
Conditions: tags: His6-TwinStrep-SUMO cleaved; N-terminal SNAP kept (SNAP-Surface 488); label: 3' end held by stalled T7 RNA polymerase

B1: target 1 insC 3' of 12,insC 3' of 9 (mixed)
RNA 1: CACCCGUGCAAAAAUGCAGGGGUCUAAAACUGAGCGGAUAACCUCUCUAUGG
RNA 2: GGGAAUGGAUCCACAUCUACGAAUUCGUACCAUAGAGAGGCUUACUCCGCUCACCGAGAUCGGAAGAGCACACGU
- Kd: 21.9 ± 1 nM

B2: target 1 MT 5'PFS GUG 3'PFS AGU (mixed)
RNA 1: B1 RNA 1
RNA 2: GGGAAUGGAUCCACAUCUACGAAUUCGUGCCAUAGAGAGGUUAUCCGCUCAAGUAGAUCGGAAGAGCACACGU
- Kd: 11.4 ± 0.8 nM

B3: target 1 MT 5'PFS GCC 3'PFS CUA (mixed)
RNA 1: B1 RNA 1
RNA 2: B2 RNA 2 with U28C, G29C, A52C, G53U, U54A
- Kd: 13.2 ± 3.15 nM

B4: target 1 MT 5'PFS GUG 3'PFS CGC (mixed)
RNA 1: B1 RNA 1
RNA 2: B2 RNA 2 with A52C, U54C
- Kd: 22.6 ± 1.7 nM

B5: target 1 MT 5'PFS GUG 3'PFS AGC (mixed)
RNA 1: B1 RNA 1
RNA 2: B2 RNA 2 with U54C
- Kd: 9.45 ± 0.75 nM

B6: target 1 MT 5'PFS GCA 3'PFS AGA (mixed)
RNA 1: B1 RNA 1
RNA 2: B2 RNA 2 with U28C, G29A, U54A
- Kd: 22.5 ± 4.15 nM

B7: target 1 MT 5'PFS UGC 3'PFS CUA (mixed)
RNA 1: B1 RNA 1
RNA 2: B2 RNA 2 with G27U, U28G, G29C, A52C, G53U, U54A
- Kd: 18 ± 7 nM

B8: target 1 MT 5'PFS GGG 3'PFS UCA (mixed)
RNA 1: B1 RNA 1
RNA 2: B2 RNA 2 with U28G, A52U, G53C, U54A
- Kd: 18.6 ± 3.75 nM

B9: target 1 MT 5'PFS GCC 3'PFS CUC (mixed)
RNA 1: B1 RNA 1
RNA 2: B2 RNA 2 with U28C, G29C, A52C, G53U, U54C
- Kd: 33 ± 15 nM

B10: target 1 MT 5'PFS UAC 3'PFS CGG (mixed)
RNA 1: B1 RNA 1
RNA 2: B2 RNA 2 with G27U, U28A, G29C, A52C, U54G
- Kd: 44.5 ± 21 nM

B11: target 1 MT 5'PFS GCA 3'PFS AGG (mixed)
RNA 1: B1 RNA 1
RNA 2: B2 RNA 2 with U28C, G29A, U54G
- Kd: 43.5 ± 10 nM

B12: target 1 MT 5'PFS UGG 3'PFS AGU (mixed)
RNA 1: B1 RNA 1
RNA 2: B2 RNA 2 with G27U, U28G
- Kd: 67 ± 33 nM

B13: target 1 MT 5'PFS GUG 3'PFS CGU (mixed)
RNA 1: B1 RNA 1
RNA 2: B2 RNA 2 with A52C
- Kd: 6.83 ± 0.425 nM

B14: target 1 MT 5'PFS GCC 3'PFS CUG (mixed)
RNA 1: B1 RNA 1
RNA 2: B2 RNA 2 with U28C, G29C, A52C, G53U, U54G
- Kd: 17 ± 6 nM

B15: target 1 G13A,C22U (mixed)
RNA 1: B1 RNA 1
RNA 2: B2 RNA 2 with G29A, C30U, G39A, A52C, G53C, U54G
- Kd: 10.7 ± 1.7 nM

B16: target 1 MT 5'PFS GUG 3'PFS CGA (mixed)
RNA 1: B1 RNA 1
RNA 2: B2 RNA 2 with A52C, U54A
- Kd: 22.9 ± 2.2 nM

B17: target 1 MT 5'PFS GGG 3'PFS UCG (mixed)
RNA 1: B1 RNA 1
RNA 2: B2 RNA 2 with U28G, A52U, G53C, U54G
- Kd: 20.7 ± 3.55 nM

B18: target 1 MT 5'PFS GGG 3'PFS UCC (mixed)
RNA 1: B1 RNA 1
RNA 2: B2 RNA 2 with U28G, A52U, G53C, U54C
- Kd: 28 ± 5 nM

B19: target 1 MT 5'PFS AAC 3'PFS UAU (mixed)
RNA 1: B1 RNA 1
RNA 2: B2 RNA 2 with G27A, U28A, G29C, A52U, G53A
- Kd: 15 ± 5.5 nM

B20: target 1 MT 5'PFS UAA 3'PFS UGC (mixed)
RNA 1: B1 RNA 1
RNA 2: B2 RNA 2 with G27U, U28A, G29A, A52U, U54C
- Kd: 31 ± 8 nM

B21: target 1 MT 5'PFS GCA 3'PFS AGU (mixed)
RNA 1: B1 RNA 1
RNA 2: B2 RNA 2 with U28C, G29A
- Kd: 23 ± 5 nM

B22: target 1 MT 5'PFS AAC 3'PFS UAC (mixed)
RNA 1: B1 RNA 1
RNA 2: B2 RNA 2 with G27A, U28A, G29C, A52U, G53A, U54C
- Kd: 31 ± 13 nM

B23: target 1 MT 5'PFS GGC 3'PFS CCC (mixed)
RNA 1: B1 RNA 1
RNA 2: B2 RNA 2 with U28G, G29C, A52C, G53C, U54C
- Kd: ~25 nM

B24: target 1 MT 5'PFS GUG 3'PFS CGG (mixed)
RNA 1: B1 RNA 1
RNA 2: B2 RNA 2 with A52C, U54G
- Kd: 23.4 ± 1.85 nM

B25: target 1 MT 5'PFS GGG 3'PFS UCU (mixed)
RNA 1: B1 RNA 1
RNA 2: B2 RNA 2 with U28G, A52U, G53C
- Kd: 14.6 ± 2.1 nM

B26: target 1 MT 5'PFS CUA 3'PFS UCU (mixed)
RNA 1: B1 RNA 1
RNA 2: B2 RNA 2 with G27C, G29A, A52U, G53C
- Kd: 4.9 ± 0.7 nM

B27: target 1 MT 5'PFS GAA 3'PFS AUA (mixed)
RNA 1: B1 RNA 1
RNA 2: B2 RNA 2 with U28A, G29A, G53U, U54A
- Kd: 32 ± 7.5 nM

B28: target 1 insC 3' of 20,insG 3' of 18 (mixed)
RNA 1: B1 RNA 1
RNA 2: B1 RNA 2 with U33C, A34U, G35A, A36G, G40A, C41G, U42G, A44U, C45A
- Kd: 12.9 ± 0.8 nM

B29: target 1 MT 5'PFS UCA 3'PFS AAC (mixed)
RNA 1: B1 RNA 1
RNA 2: B2 RNA 2 with G27U, U28C, G29A, G53A, U54C
- Kd: 18.6 ± 5.7 nM

B30: target 1 MT 5'PFS UCA 3'PFS AAA (mixed)
RNA 1: B1 RNA 1
RNA 2: B2 RNA 2 with G27U, U28C, G29A, G53A, U54A
- Kd: 21 ± 9 nM

B31: target 1 insC 3' of 17,insC 3' of 10 (mixed)
RNA 1: B1 RNA 1
RNA 2: B1 RNA 2 with A36C, G37A, A38G, G39A, C41G, A44C, C45A
- Kd: 52 ± 18 nM

B32: target 1 MT 5'PFS UGC 3'PFS CUG (mixed)
RNA 1: B1 RNA 1
RNA 2: B2 RNA 2 with G27U, U28G, G29C, A52C, G53U, U54G
- Kd: 13.2 ± 2.8 nM

B33: target 1 MT 5'PFS UAU 3'PFS CUU (mixed)
RNA 1: B1 RNA 1
RNA 2: B2 RNA 2 with G27U, U28A, G29U, A52C, G53U
- Kd: 39.5 ± 12.5 nM

B34: target 1 MT 5'PFS GUG 3'PFS AGG (mixed)
RNA 1: B1 RNA 1
RNA 2: B2 RNA 2 with U54G
- Kd: 28.7 ± 1.75 nM
